PMC12749989, “Conformational plasticity across phylogenetic clusters of RND multidrug efflux pumps and its impact on substrate specificity” (Nature Communications, 2025)

How the values were obtained:
[1] = molecular target: K. pneumoniae OqxB (Klebsiella pneumoniae); test: crystal structure; detergent-solubilised (DDM) OqxB; sitting drop, 25 °C, 12% PEG4000, 0.2 M MgCl2, 100 mM ADA pH 6.5
[2] = molecular target: K. pneumoniae OqxB (Klebsiella pneumoniae); test: cryo-EM structure; single-particle cryo-EM of AcrB or OqxB reconstituted in detergent-free salipro nanodiscs (saposinA, E. coli total lipids), 20 mM Tris pH 7.5, 150 mM NaCl
[3] = molecular target: the molecule itself; test: cryo-EM structure; single-particle cryo-EM of DDM-solubilised AcrB; trimer composition from the classified monomers
[4] = molecular target: the molecule itself; test: cryo-EM structure; single-particle cryo-EM of AcrB or OqxB reconstituted in detergent-free salipro nanodiscs (saposinA, E. coli total lipids), 20 mM Tris pH 7.5, 150 mM NaCl
[5] = molecular target: the molecule itself; test: crystal structure; DDM-solubilised AcrB variants mixed with DARPins 1:2, excess DARPin removed by SEC (20 mM Tris pH 7.5, 150 mM NaCl, 0.03 % DDM); hanging drop, 18 °C; with 2 mM minocycline or apo

Molecule: K. pneumoniae OqxB (natural protein)
- stoichiometry N [1]: 3
- stoichiometry N [2]: 3

B1: E. coli AcrB V612W (natural protein)
chain: MPNFFIDRPIFAWVIAIIIMLAGGLAILKLPVAQYPTIAPPAVTISASYPGADAKTVQDTVTQVIEQNMNGIDNLMYMSSNSDSTGTVQITLTFESGTDADIAQVQVQNKLQLAMPLLPQEVQQQGVSVEKSSSSFLMVVGVINTDGTMTQEDISDYVAANMKDAISRTSGVGDVQLFGSQYAMRIWMNPNELNKFQLTPVDVITAIKAQNAQVAAGQLGGTPPVKGQQLNASIIAQTRLTSTEEFGKILLKVNQDGSRVLLRDVAKIELGGENYDIIAEFNGQPASGLGIKLATGANALDTAAAIRAELAKMEPFFPSGLKIVYPYDTTPFVKISIHEVVKTLVEAIILVFLVMYLFLQNFRATLIPTIAVPVVLLGTFAVLAAFGFSINTLTMFGMVLAIGLLVDDAIVVVENVERVMAEEGLPPKEATRKSMGQIQGALVGIAMVLSAVFVPMAFFGGSTGAIYRQFSITIVSAMALSVLVALILTPALCATMLKPIAKGDHGEGKKGFFGWFNRMFEKSTHHYTDSVGGILRSTGRYLVLYLIIVVGMAYLFVRLPSSFLPDEDQGVFMTMVQLPAGATQERTQKVLNEVTHYYLTKEKNNVESVFAWNGFGFAGRGQNTGIAFVSLKDWADRPGEENKVEAITMRATRAFSQIKDAMVFAFNLPAIVELGTATGFDFELIDQAGLGHEKLTQARNQLLAEAAKHPDMLTSVRPNGLEDTPQFKIDIDQEKAQALGVSINDINTTLGAAWGGSYVNDFIDRGRVKKVYVMSEAKYRMLPDDIGDWYVRAADGQMVPFSAFSSSRWEYGSPRLERYNGLPSMEILGQAAPGKSTGEAMELMEQLASKLPTGVGYDWTGMSYQERLSGNQAPSLYAISLIVVFLCLAALYESWSIPFSVMLVVPLGVIGALLAATFRGLTNDVYFQVGLLTTIGLSAKNAILIVEFAKDLMDKEGKGLIEATLDAVRMRLRPILMTSLAFILGVMPLVISTGAGSGAQNAVGTGVMGGMVTATVLAIFFVPVFFVVVRRRFSRKNEDIEHSHTVDHH
notes: Homotrimer; source: E. coli C43 (DE3) ∆acrB, purified (Ni-NTA, SEC), DDM-solubilised
- stoichiometry N [3]: 3

B2: E. coli AcrB V612F (natural protein)
chain: MPNFFIDRPIFAWVIAIIIMLAGGLAILKLPVAQYPTIAPPAVTISASYPGADAKTVQDTVTQVIEQNMNGIDNLMYMSSNSDSTGTVQITLTFESGTDADIAQVQVQNKLQLAMPLLPQEVQQQGVSVEKSSSSFLMVVGVINTDGTMTQEDISDYVAANMKDAISRTSGVGDVQLFGSQYAMRIWMNPNELNKFQLTPVDVITAIKAQNAQVAAGQLGGTPPVKGQQLNASIIAQTRLTSTEEFGKILLKVNQDGSRVLLRDVAKIELGGENYDIIAEFNGQPASGLGIKLATGANALDTAAAIRAELAKMEPFFPSGLKIVYPYDTTPFVKISIHEVVKTLVEAIILVFLVMYLFLQNFRATLIPTIAVPVVLLGTFAVLAAFGFSINTLTMFGMVLAIGLLVDDAIVVVENVERVMAEEGLPPKEATRKSMGQIQGALVGIAMVLSAVFVPMAFFGGSTGAIYRQFSITIVSAMALSVLVALILTPALCATMLKPIAKGDHGEGKKGFFGWFNRMFEKSTHHYTDSVGGILRSTGRYLVLYLIIVVGMAYLFVRLPSSFLPDEDQGVFMTMVQLPAGATQERTQKVLNEVTHYYLTKEKNNVESVFAFNGFGFAGRGQNTGIAFVSLKDWADRPGEENKVEAITMRATRAFSQIKDAMVFAFNLPAIVELGTATGFDFELIDQAGLGHEKLTQARNQLLAEAAKHPDMLTSVRPNGLEDTPQFKIDIDQEKAQALGVSINDINTTLGAAWGGSYVNDFIDRGRVKKVYVMSEAKYRMLPDDIGDWYVRAADGQMVPFSAFSSSRWEYGSPRLERYNGLPSMEILGQAAPGKSTGEAMELMEQLASKLPTGVGYDWTGMSYQERLSGNQAPSLYAISLIVVFLCLAALYESWSIPFSVMLVVPLGVIGALLAATFRGLTNDVYFQVGLLTTIGLSAKNAILIVEFAKDLMDKEGKGLIEATLDAVRMRLRPILMTSLAFILGVMPLVISTGAGSGAQNAVGTGVMGGMVTATVLAIFFVPVFFVVVRRRFSRKNEDIEHSHTVDHH
notes: Homotrimer; source: E. coli C43 (DE3) ∆acrB, purified (Ni-NTA, SEC); DDM-solubilised, in cyclohexyl-n-hexyl-β-D-maltoside (apo crystals) or reconstituted in salipro nanodiscs
- stoichiometry N [4]: 3

B3: E. coli AcrB V612N (natural protein)
chain: MPNFFIDRPIFAWVIAIIIMLAGGLAILKLPVAQYPTIAPPAVTISASYPGADAKTVQDTVTQVIEQNMNGIDNLMYMSSNSDSTGTVQITLTFESGTDADIAQVQVQNKLQLAMPLLPQEVQQQGVSVEKSSSSFLMVVGVINTDGTMTQEDISDYVAANMKDAISRTSGVGDVQLFGSQYAMRIWMNPNELNKFQLTPVDVITAIKAQNAQVAAGQLGGTPPVKGQQLNASIIAQTRLTSTEEFGKILLKVNQDGSRVLLRDVAKIELGGENYDIIAEFNGQPASGLGIKLATGANALDTAAAIRAELAKMEPFFPSGLKIVYPYDTTPFVKISIHEVVKTLVEAIILVFLVMYLFLQNFRATLIPTIAVPVVLLGTFAVLAAFGFSINTLTMFGMVLAIGLLVDDAIVVVENVERVMAEEGLPPKEATRKSMGQIQGALVGIAMVLSAVFVPMAFFGGSTGAIYRQFSITIVSAMALSVLVALILTPALCATMLKPIAKGDHGEGKKGFFGWFNRMFEKSTHHYTDSVGGILRSTGRYLVLYLIIVVGMAYLFVRLPSSFLPDEDQGVFMTMVQLPAGATQERTQKVLNEVTHYYLTKEKNNVESVFANNGFGFAGRGQNTGIAFVSLKDWADRPGEENKVEAITMRATRAFSQIKDAMVFAFNLPAIVELGTATGFDFELIDQAGLGHEKLTQARNQLLAEAAKHPDMLTSVRPNGLEDTPQFKIDIDQEKAQALGVSINDINTTLGAAWGGSYVNDFIDRGRVKKVYVMSEAKYRMLPDDIGDWYVRAADGQMVPFSAFSSSRWEYGSPRLERYNGLPSMEILGQAAPGKSTGEAMELMEQLASKLPTGVGYDWTGMSYQERLSGNQAPSLYAISLIVVFLCLAALYESWSIPFSVMLVVPLGVIGALLAATFRGLTNDVYFQVGLLTTIGLSAKNAILIVEFAKDLMDKEGKGLIEATLDAVRMRLRPILMTSLAFILGVMPLVISTGAGSGAQNAVGTGVMGGMVTATVLAIFFVPVFFVVVRRRFSRKNEDIEHSHTVDHH
notes: as for B1
- stoichiometry N [5]: 3
